Reference: US20220289798A1 (published 2022)
Numbering of substitutions follows the chain as printed. In names and notes the source's numbering stands.

B1: Q 20K (other)
chain: MSLTHRKFGGSGGSPFSGLSSIAVRSGSYLDAIIIDGVHHGGSGGNLSPTFTFGSGEYISNMTIRSGDYIDNISFETNQGRRFGPYGGSGGSANTLSNVKVIQINGSAGDYLDSLDIYYEQY
modifications: 20,000 MW PEG coupled by NHS ester to a primary amine. The candidate sites are Lys pos 7 and Lys pos 100, both written K. At least one PEG per dimer. The exact site and number of PEGs are not determined.
B2: M78K (other)
chain: B1 chain with K7R, Q79K, K100R
B3: Q (other)
chain: B1 chain
B4: M78K 2K (other)
chain: B1 chain with K7R, Q79K, K100R
modifications: chain 1 pos 79: Lys carrying 2,000 MW PEG by NHS-ester amine coupling, written K. It is the only lysine in the chain. At least one PEG per dimer. The exact site and occupancy were not measured.
B5: M78K 20K (other)
chain: B1 chain with K7R, Q79K, K100R
modifications: chain 1 pos 79: Lys carrying 20,000 MW PEG by NHS-ester amine coupling, written K. It is the only lysine in the chain. At least one PEG per dimer. The exact site and occupancy were not measured.
B6: CK 20K (other)
chain: MSLTHRRFGGSGGSPFSGLSSIAVRSGSYLDAIIIDGVHHGGSGGNLSPTFTFGSGEYISNMTIRSGDYIDNISFETNQGRRFGPYGGSGGSANTLSNVRVIQINGSAGDYLDSLDIYYEQYK
modifications: 20,000 MW PEG coupled by NHS ester to a primary amine. The intended site is the added C-terminal Lys, pos 123, written K. At least one PEG per dimer. The exact site and number of PEGs are not determined.
B7: CK (other)
chain: B6 chain
B8: NK (other)
chain: MKSLTHRRFGGSGGSPFSGLSSIAVRSGSYLDAIIIDGVHHGGSGGNLSPTFTFGSGEYISNMTIRSGDYIDNISFETNQGRRFGPYGGSGGSANTLSNVRVIQINGSAGDYLDSLDIYYEQY
B9: NK 2K (other)
chain: B8 chain
modifications: 2,000 MW PEG coupled by NHS ester to a primary amine. The intended site is the added N-terminal Lys, pos 2, written K; the N-terminal amine is also possible. At least one PEG per dimer. The exact site and number of PEGs are not determined.
B10: M78K2K Rx Direct (other)
chain: B1 chain with K7R, Q79K, K100R
modifications: chain 1 pos 79: Lys carrying 2,000 MW PEG by NHS-ester amine coupling, written K. It is the only lysine in the chain. At least one PEG per dimer. The exact site and occupancy were not measured.
B11: M78K20K Rx (other)
chain: B1 chain with K7R, Q79K, K100R
modifications: chain 1 pos 79: Lys carrying 20,000 MW PEG by NHS-ester amine coupling, written K. It is the only lysine in the chain. At least one PEG per dimer. The exact site and occupancy were not measured.
B12: Q 20K Direct (other)
chain: B1 chain
modifications: 20,000 MW PEG coupled by NHS ester to a primary amine. The candidate sites are Lys pos 7 and Lys pos 100, both written K. At least one PEG per dimer. The exact site and number of PEGs are not determined.
B13: CK 20K Direct (other)
chain: B6 chain
modifications: 20,000 MW PEG coupled by NHS ester to a primary amine. The intended site is the added C-terminal Lys, pos 123, written K. At least one PEG per dimer. The exact site and number of PEGs are not determined.
B14: NK 20K Direct (other)
chain: B8 chain
modifications: 20,000 MW PEG coupled by NHS ester to a primary amine. The intended site is the added N-terminal Lys, pos 2, written K; the N-terminal amine is also possible. At least one PEG per dimer. The exact site and number of PEGs are not determined.
B15: NK 2K Direct (other)
chain: B8 chain
modifications: 2,000 MW PEG coupled by NHS ester to a primary amine. The intended site is the added N-terminal Lys, pos 2, written K; the N-terminal amine is also possible. At least one PEG per dimer. The exact site and number of PEGs are not determined.
B16: NK 20K (other)
chain: B8 chain
modifications: 20,000 MW PEG coupled by NHS ester to a primary amine. The intended site is the added N-terminal Lys, pos 2, written K; the N-terminal amine is also possible. At least one PEG per dimer. The exact site and number of PEGs are not determined.

What follows are binders tested against Gp120 (HIV) (assay: ELISA).

First: B1
Second: B2
The EC50 of the first is 3-fold higher: 33.6 ng/mL for the first, 11.1 ng/mL for the second.

Going from B3 to B4, the EC50 rises from 8.38 ng/mL to 33.8 ng/mL (4-fold).

First: B5
Second: B6
The EC50 of the first is 3.4-fold higher: 304 ng/mL for the first, 90.5 ng/mL for the second.

B7 and B8 are within 1.5-fold of each other in EC50: 10.5 ng/mL for the first, 15 ng/mL for the second.

B9 was tested, and the EC50 was 60.8 ng/mL.

What follows are binders tested against Gp120 (HIV) (assay: direct ELISA; direct ELISA).

First: B10
Second: B11
The EC50 of the first is 5.3-fold higher: 0.332 ng/mL for the first, 0.0624 ng/mL for the second.

B12 and B13 are within 1.5-fold of each other in EC50: 0.0355 ng/mL for the first, 0.029 ng/mL for the second.

Compared with B14, B15 is 5.1-fold higher in EC50: 0.0173 ng/mL for the first, 0.0875 ng/mL for the second.

These binders were tested against Gp120 (HIV) (assay: indirect ELISA; indirect ELISA).

B1 and B4 are within 1.5-fold of each other in EC50: 16.3 ng/mL for the first, 10.9 ng/mL for the second.

B5 and B6 are within 1.5-fold of each other in EC50: 19.2 ng/mL for the first, 14.1 ng/mL for the second.

Compared with B16, B9 is 3.5-fold lower in EC50: 26.4 ng/mL for the first, 7.45 ng/mL for the second.
